Data on 3 molecules can be found in US20240383982A1 (Genmab, published 2024).

Test [1] addresses T1, rabbit (Oryctolagus cuniculus) B7H4, full length, on HEK-293F cells (rabbit, UniProt Q7Z7D3 25-282 (human entry)).
T1 construct: Uniprot G1TQE8; also called rabbit B7H4
T1 chain: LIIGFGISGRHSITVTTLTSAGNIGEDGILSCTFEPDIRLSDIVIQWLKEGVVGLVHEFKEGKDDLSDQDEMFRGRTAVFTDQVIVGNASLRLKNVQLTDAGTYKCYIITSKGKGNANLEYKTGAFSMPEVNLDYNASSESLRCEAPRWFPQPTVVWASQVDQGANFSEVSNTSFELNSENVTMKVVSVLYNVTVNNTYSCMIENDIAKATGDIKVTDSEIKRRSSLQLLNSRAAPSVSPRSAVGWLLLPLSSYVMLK
Description: flow cytometry, HEK-293F cells transiently transfected with rabbit B7H4, PE anti-human IgG F(ab')2 [panel Rabbit B7H4]. As for the experimental part: (§1) Cells (3×10⁴ cells/well) were incubated in polystyrene 96-well round-bottom plates (Greiner bio-one, cat. no. 650180) with serial dilutions of antibodies (ranging from 0.000458 to 30 μg/mL in 4-fold dilution steps) in 100 μL PBS/0.1% BSA/0.02% azide (staining buffer) at 4° C. for 30 min. Experiments were performed in technical duplicate. After washing twice in staining buffer, cells were incubated in 50 μL secondary antibody at 4° C. for 30 min. As a secondary antibody, R-Phycoerythrin (PE)-conjugated goat-anti-human IgG F(ab′)₂ (1:500 in FACS buffer; Jackson ImmunoResearch Laboratories, Inc., West Grove, PA, cat. no. 109-116-098), was used. Cells were washed twice in staining buffer, re-suspended in 30 μL FACS buffer containing Topro-3 (1:10,000 dilution) and analyzed on an iQue Screener (Intellicyt Corporation, USA). Binding curves were analyzed using non-linear regression (sigmoidal dose-response with variable slope) using GraphPad Prism V7.02 software (GraphPad Software, San Diego, CA, USA).
In general terms: Flow cytometry measures light scatter and fluorescence of single cells or particles in a stream.

Test [2] has as its target T2, pig (Sus scrofa) B7H4, full length, on HEK-293F cells (pig, UniProt Q7Z7D3 26-282 (human entry)).
T2 construct: Uniprot F1SAY4; also called pig B7H4
T2 chain: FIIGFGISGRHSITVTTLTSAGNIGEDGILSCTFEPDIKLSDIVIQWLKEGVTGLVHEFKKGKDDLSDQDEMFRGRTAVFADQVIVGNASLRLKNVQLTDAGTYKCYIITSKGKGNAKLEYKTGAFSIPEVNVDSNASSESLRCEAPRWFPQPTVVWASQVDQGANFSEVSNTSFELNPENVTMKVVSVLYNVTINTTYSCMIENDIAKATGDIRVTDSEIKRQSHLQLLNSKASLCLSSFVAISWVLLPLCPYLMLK
The test is described as follows: flow cytometry, HEK-293F cells transiently transfected with pig B7H4, PE anti-human IgG F(ab')2 [panel Pig B7H4]. As for the experimental part:
as §1

The target in test [3] is T3, rat (Rattus norvegicus) B7H4, full length, on HEK-293F cells (rat, UniProt Q501W4 25-257).
T3 construct: Uniprot Q501W4; also called rat B7H4
T3 sequence: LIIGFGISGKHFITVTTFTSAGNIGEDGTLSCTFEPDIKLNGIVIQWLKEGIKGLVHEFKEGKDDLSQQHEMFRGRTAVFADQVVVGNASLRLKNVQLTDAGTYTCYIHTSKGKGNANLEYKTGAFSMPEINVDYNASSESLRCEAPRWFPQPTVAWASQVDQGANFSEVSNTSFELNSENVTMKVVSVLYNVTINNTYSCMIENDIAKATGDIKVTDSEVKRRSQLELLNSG
The test is described as follows: flow cytometry, HEK-293F cells transfected with rat B7H4 [panel Rat B7H4]. As for the experimental part: as §1

Test [4] has as its target T2, pig (Sus scrofa) B7H4, full length, on …. The test is described as follows: flow cytometry, HEK-293F cells transfected with pig B7H4 [panel Pig B7H4]. The protocol: as §1
For test [5], the target named is T4, mouse B7H4 ECD-His (R&D Systems, cat. no. 2154-B7-050) (mouse, UniProt Q7TSP5 29-256).
T4 construct: Bought ECD-His protein (26.6 kDa); also called mouse B7H4 extracellular domain
T4 sequence: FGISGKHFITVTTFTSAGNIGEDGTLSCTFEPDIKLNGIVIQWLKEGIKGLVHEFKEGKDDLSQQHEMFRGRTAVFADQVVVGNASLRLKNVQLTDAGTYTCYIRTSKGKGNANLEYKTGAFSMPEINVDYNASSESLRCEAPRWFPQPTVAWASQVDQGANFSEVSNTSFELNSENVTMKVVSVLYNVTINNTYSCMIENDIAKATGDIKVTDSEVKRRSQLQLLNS
The test is described as follows: BLI (Octet HTX); antibody on anti-human IgG Fc capture sensor, mouse B7H4 ECD-His in solution; 2nd experiment. As for the experimental part:
Target binding affinity of B7H4 antibodies was determined by label-free biolayer interferometry (BLI) on an Octet HTX instrument (FortéBio). Experiments were carried out while shaking at 1,000 RPM at 30° C. […] Anti-Human IgG Fc Capture (AHC) biosensors (FortéBio, cat. no. 18-5060) were pre-conditioned by exposure to 10 mM glycine (Sigma-Aldrich, cat. no. 15527) buffer pH 1.7 for 5 s, followed by neutralization in Sample Diluent (FortéBio, cat. no. 18-1048) for 5 s; both steps were repeated 2 times. Next, AHC sensors were loaded with antibody (1 μg/mL in Sample diluent) for 600 s. […] The theoretical molecular mass of human B7H4 and mouse B7H4 (as ECD-His tagged molecules) based on their amino acid sequences (26.8 kDa and 26.6 kDa respectively) were used for calculations. For each antibody a reference sensor was used, which was incubated with Sample Diluent instead of antigen. AHC sensors were regenerated by exposure to 10 mM glycine buffer pH 1.7 for 5 s, followed by neutralization in Sample Diluent for 5 s; both steps were repeated twice. Subsequently sensors were loaded again with antibody for the next cycle of kinetics measurements.
Data were acquired using Data Acquisition Software v9.0.0.49d (FortéBio) and analyzed with Data Analysis Software v9.0.0.12 (FortéBio). Data traces were corrected per antibody by subtraction of the reference sensor. The Y-axis was aligned to the last 10 s of the baseline, Interstep Correction alignment to dissociation and Savitzky-Golay filtering were applied. Data traces with a response<0.05 nm were excluded from analysis. The data was fitted with the 1:1 Global Full fit model using a window of interest for the association and dissociation times set at 300 s and 200 s respectively.
In general terms: In BLI a coated tip is dipped into the sample, and binding shifts an interference pattern.

B1: IgG1-B7H4-C1-N52S-FEAR (antibody, V domains shown)
VH: QVQLQQWGAGLLKPSETLSLTCAVYGGSFSGYYWSWIRQPPGKGLEWIGEISHSGSTNYNPSLKSRVTISIDTSKNQFSLKLTSVTAADTAVFYCARGLFNWNFDSWGQGTLVTVSS
VL: DIQMTQSPSSLSASVGDRVTITCRASQGIRNDLGWYQQKPGKAPKRLIYGASSLQSGVPSRFSGSGSGTEFTLTISSLQPEDFATYYCLQHNSYPRTFGQGTTVEIKR
notes: Full length human IgG1 with L234F, L235E, D265A, K409R (FEAR) heavy chain constant region and kappa light chain; bivalent, monospecific; also called IgG1-B7H4-C1-052S-FEAR
Usually EC50 (read off the curve) stands for the concentration giving half of the maximal effect. For the molecule B1, in test [1], the “EC50 (read off the curve)” value is around 0.3 µg/mL. The binding result in test [2] is “binds”.

B2: IgG1-B7H4-C5-FEAR (antibody, V domains shown)
VH: QLQLQESGPGLVKPSETLSLTCTVSGGSIKSGSYYWGWIRQPPGKGLEWIGNIYYSGSTYYNPSLRSRVTISVDTSKNQFSLKLSSVTAADTAVYYCAREGSYPNQFDPWGQGTLVTVSS
VL: EIVMTQSPATLSVSPGERATLSCRASQSVSSNLAWYQQKPGQAPRLLIYGASTRATGIPARFSGSGSGTEFTLTISSLQSEDFAVYYCQQYHSFPFTFGGGTKVEIKR
notes: Full length IgG1 FEAR, kappa; variable domains from US20190085080A1
For orientation: Kd means a measure of binding affinity in units of concentration. A higher Kd goes with a looser complex. One may read the koff as the first-order rate constant of dissociation. A high value points to a short-lived complex. Broadly, the kon is the rate constant with which the complex forms. Consider B2, for which, in test [3], the binding result is “binds”. In addition, the binding result in test [4] was “binds”. For the same molecule, in test [5], the affinity, expressed as Kd, was 14 nM; the koff came to 0.0024 s⁻¹; the kon was 170000 M⁻¹ s⁻¹.

B3: bsIgG1-huCD3-H101G-FEALxB7H4-C1-N52S-FEAR (bispecific antibody)
heavy 1: not shown
light 1: not shown
heavy 2: QVQLQQWGAGLLKPSETLSLTCAVYGGSFSGYYWSWIRQPPGKGLEWIGEISHSGSTNYNPSLKSRVTISIDTSKNQFSLKLTSVTAADTAVFYCARGLFNWNFDSWGQGTLVTVSSASTKGPSVFPLAPSSKSTSGGTAALGCLVKDYFPEPVTVSWNSGALTSGVHTFPAVLQSSGLYSLSSVVTVPSSSLGTQTYICNVNHKPSNTKVDKRVEPKSCDKTHTCPPCPAPEFEGGPSVFLFPPKPKDTLMISRTPEVTCVVVAVSHEDPEVKFNWYVDGVEVHNAKTKPREEQYNSTYRVVSVLTVLHQDWLNGKEYKCKVSNKALPAPIEKTISKAKGQPREPQVYTLPPSREEMTKNQVSLTCLVKGFYPSDIAVEWESNGQPENNYKTTPPVLDSDGSFFLYSRLTVDKSRWQQGNVFSCSVMHEALHNHYTQKSLSLSPGK
light 2: DIQMTQSPSSLSASVGDRVTITCRASQGIRNDLGWYQQKPGKAPKRLIYGASSLQSGVPSRFSGSGSGTEFTLTISSLQPEDFATYYCLQHNSYPRTFGQGTTVEIKRTVAAPSVFIFPPSDEQLKSGTASVVCLLNNFYPREAKVQWKVDNALQSGNSQESVTEQDSKDSTYSLSSTLTLSKADYEKHKVYACEVTHQGLSSPVTKSFNRGEC
notes: also called bslgG1-huCD3-H101G-FEALxB7H4-C1-N52S-FEAR; BslgG1-huCD3-H101G-FEALxB7H4-C1-N52S-FEAR
For B3, the binding result in test [1] is “binds”.
